This note sets out measurements from paper PMC11321701, “Generation and Characterization of Novel Pan‐Cancer Anti‐uPAR Fluorescent Nanobodies as Tools for Image‐Guided Surgery” (Advanced Science, 2024).

For assay [1], the target named is T1, recombinant human urokinase plasminogen activator receptor (HuPAR) protein (Homo sapiens, UniProt Q03405).
Target sequence in this assay (Q03405 23-305): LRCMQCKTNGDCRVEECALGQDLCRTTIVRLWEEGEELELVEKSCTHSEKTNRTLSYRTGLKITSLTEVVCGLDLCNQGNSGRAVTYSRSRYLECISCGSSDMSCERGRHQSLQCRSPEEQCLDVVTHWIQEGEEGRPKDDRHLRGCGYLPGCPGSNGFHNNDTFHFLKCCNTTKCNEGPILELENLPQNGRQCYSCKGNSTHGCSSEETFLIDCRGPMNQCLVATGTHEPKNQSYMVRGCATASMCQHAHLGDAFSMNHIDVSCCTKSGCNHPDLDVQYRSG
The target of assay [2] is T2, recombinant murine urokinase plasminogen activator receptor (MuPAR) protein (Mus musculus, UniProt P35456).
T2 construct: 'Extracellular domain' is said of the immunogen; also called murine uPAR
Description: ELISA; BE-ELISA: bacterial extracts of Nb clones on H, M or CuPAR protein, against uncoated control; cross-reactivity screening. To be noted: one partner purified. In general terms: In an ELISA, binding on a coated surface is turned into a signal by an enzyme label.

Assay [3] has as its target T1, recombinant human urokinase plasminogen …. Description: SPR; kinetic binding parameters (ka, kd, KD) of purified Nbs toward recombinant H, M or CuPAR antigens. Particulars: both partners purified. On the technique in general: SPR reads the build-up and loss of mass on a sensor chip optically.
Target sequence in this assay (Q03405 whole entry, looked up): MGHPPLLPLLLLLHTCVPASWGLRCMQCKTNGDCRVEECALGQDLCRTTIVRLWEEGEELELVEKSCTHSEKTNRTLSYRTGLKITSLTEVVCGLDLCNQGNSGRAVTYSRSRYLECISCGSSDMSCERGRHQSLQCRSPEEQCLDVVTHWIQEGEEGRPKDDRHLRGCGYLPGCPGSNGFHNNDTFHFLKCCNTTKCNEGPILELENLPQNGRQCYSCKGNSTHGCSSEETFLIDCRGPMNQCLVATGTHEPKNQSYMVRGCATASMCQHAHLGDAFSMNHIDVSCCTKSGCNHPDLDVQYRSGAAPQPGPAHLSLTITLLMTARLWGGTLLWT
For assay [4], the target named is T2, recombinant murine urokinase …. Described as above. To be noted: both partners purified.

Changes are numbered by the printed parent chain. Where two headings read alike, the source gives them in different places.

T2 sequence (P35456 whole entry, looked up, the tested form may be a part): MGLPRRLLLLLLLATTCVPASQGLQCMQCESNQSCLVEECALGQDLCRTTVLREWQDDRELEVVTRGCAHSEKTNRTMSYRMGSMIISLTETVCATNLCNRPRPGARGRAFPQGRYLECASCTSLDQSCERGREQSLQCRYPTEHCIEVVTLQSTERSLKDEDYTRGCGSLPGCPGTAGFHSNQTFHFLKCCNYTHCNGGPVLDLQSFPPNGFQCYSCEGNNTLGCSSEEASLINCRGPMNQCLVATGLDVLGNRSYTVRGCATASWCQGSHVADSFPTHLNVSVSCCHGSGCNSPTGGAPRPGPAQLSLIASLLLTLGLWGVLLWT

B1: 5A5 (Nb 16) (VHH)
VHH: QVQLQESGGGLVQPGGSLRLSCAISGFTLDYYGIGWFRQAPGKEREGVSCISSSDGSTYYADSVKGRFTISRDNAKNTVYLQMNSLKPEDTAVYYCATRGASCYYSGSYSLGYDYWGQGTQVTVSS
What is called Kd is the constant that tells how readily two partners part at equilibrium. Take B1: the Kd in assay [1] turned out to be 3 nM.

B2: Nb 15 (VHH)
VHH: B1 VHH with L11W, I24A, S106T
notes: Nanobody from a llama immunized with human and murine uPAR; The clone in bacterial extracts came before recloning into the expression vector, so its tags may differ from the purified form; also called anti-HuPAR Nb 15; lead anti-HuPAR/CuPAR Nanobody; source: E. coli WK6, purified from the periplasm (osmotic shock, IMAC, SEC); bacterial extracts for ELISA and SPR off-rate screening
Regarding B2, the binding result in assay [2] is “no binding”. Also, the dissociation constant (Kd) in assay [3] is below 10 nM.

B3: 5B7 (Nb 17) (VHH)
VHH: B1 VHH with I24V, F27S, D30E, S106T
For the molecule B3, in assay [1], the Kd is 2.3 nM.

B4: 5H2 (Nb 18) (VHH)
VHH: B1 VHH with V12A, A23T, I24A, L29S, S106T
For the molecule B4, the Kd in assay [1] amounted to 4.7 nM.

B5: Nb 13 (VHH)
VHH: QVQLQESGGGLVQSGGSLRLSCAVSGIGFVYYAMRWWRQAPGKERELVAGITGASGNTNYAESVKDRFTISRDNASNTVYLQMNSLKPEDTAVYYCNAAPLIRFGPPKDYWGQGTQVTVSS
notes: Nb 13 is the only member of its family; Nanobody from a llama immunized with human and murine uPAR; also called lead anti-MuPAR Nanobody; source: E. coli WK6, purified from the periplasm (osmotic shock, IMAC, SEC)
B5: the dissociation constant Kd in assay [4] is below 10 nM.
